pKd: −log10 of the molar value.
Assays:
Experiment in all cases: IEDB peptide-MHC binding, purified MHC/competitive/radioactivity; filed as Kd, often an IC50 or EC50 that approximates it; ≥ and ≤ were set here for values at or beyond the usual limits of such assays
HLA-A*03:01 = molecular target: HLA-A*03:01
HLA-A*11:01 = molecular target: HLA-A*11:01
HLA-A*31:01 = molecular target: HLA-A*31:01
HLA-A*33:01 = molecular target: HLA-A*33:01
HLA-A*68:01 = molecular target: HLA-A*68:01
[1] = source organism: Mammarenavirus brazilense
[2] = source organism: Mammarenavirus juninense
[3] = source organism: Mammarenavirus whitewaterense
[4] = source organism: Vaccinia virus WR
[5] = source organism: Dengue virus 1 Brazil/97-11/1997
[6] = source organism: SARS coronavirus Tor2
[7] = source organism: Dengue virus 2 Jamaica/1409/1983
[8] = source organism: Dengue virus 3 Martinique/1243/1999
[9] = source organism: Mammarenavirus guanaritoense
[10] = source organism: Dengue virus 4 Philippines/H241/1956
[11] = source organism: Mammarenavirus machupoense

Sequence	pKd (HLA-A*03:01; [4])	pKd (HLA-A*11:01; [4])	pKd (HLA-A*31:01; [4])	pKd (HLA-A*33:01; [4])	pKd (HLA-A*68:01; [4])	other results
KCFGNTALAK	–	–	–	–	–	pKd (HLA-A*03:01; [1]): 6.08; pKd (HLA-A*11:01; [1]): 5.07; pKd (HLA-A*31:01; [1]): 6.01; pKd (HLA-A*33:01; [1]): ≤ 4.15; pKd (HLA-A*68:01; [1]): ≤ 4.65
KCFGNTAVAK	–	–	–	–	–	pKd (HLA-A*03:01; [2]): 6.24; pKd (HLA-A*11:01; [2]): 5.19; pKd (HLA-A*31:01; [2]): 6.74; pKd (HLA-A*33:01; [2]): 5.83; pKd (HLA-A*68:01; [2]): 4.73
KIGHHVELQH	–	–	–	–	–	pKd (HLA-A*03:01; [3]): ≤ 4.33; pKd (HLA-A*11:01; [3]): ≤ 4.16; pKd (HLA-A*31:01; [3]): 7.60; pKd (HLA-A*33:01; [3]): ≤ 4.30; pKd (HLA-A*68:01; [3]): ≤ 4.15
KLQARNIQK	8.10	7.75	7.87	6.03	6.77	–
KVSAQNISFK	5.29	6.88	6.36	5.48	5.47	–
LAIKNYYRK	≤ 4.34	7.12	6.11	5.84	7.90	–
LAMGIMMLK	–	–	–	–	–	pKd (HLA-A*03:01; [5]): 7.12; pKd (HLA-A*11:01; [5]): 7.49; pKd (HLA-A*68:01; [5]): 7.69
LFLLFLEITY	5.71	5.43	5.46	5.02	6.56	–
LLFADINGK	–	–	–	–	–	pKd (HLA-A*03:01; [6]): 7.51; pKd (HLA-A*11:01; [6]): 8.06; pKd (HLA-A*31:01; [6]): 5.59; pKd (HLA-A*33:01; [6]): ≤ 4.29; pKd (HLA-A*68:01; [6]): 6.92
LLGDSDSVAK	6.69	6.23	5.45	≤ 4.15	4.96	–
LMSGKGIGK	–	–	–	–	–	pKd (HLA-A*03:01; [7]): 7.12
LTALLSCIR	≤ 4.11	6.04	6.61	5.96	8.12	–
LTNKHCLNNY	5.86	5.68	5.35	≤ 4.18	≤ 4.67	–
LTNTTTESR	–	–	–	–	–	pKd (HLA-A*68:01; [7]): 7.13
LTYQNKVVK	–	–	–	–	–	pKd (HLA-A*03:01; [8]): 7.93; pKd (HLA-A*11:01; [8]): 7.15
MIIGHIGHHY	7.33	6.99	6.82	≤ 4.26	7.71	–
MLQGRGPLK	–	–	–	–	–	pKd (HLA-A*03:01; [7]): ≥ 9.00; pKd (HLA-A*11:01; [7]): 6.91
MMFINSTCY	7.67	6.80	6.89	5.41	6.84	–
MMNRDKIPIY	5.99	5.42	4.98	≤ 4.15	≤ 4.15	–
MSHVKSVTK	7.73	8.09	7.70	5.71	8.05	–
MSMGDIITY	6.87	8.25	5.07	4.88	8.73	–
NAPIKEFKAK	4.81	≤ 4.56	5.05	5.48	6.73	–
NFFTELENK	≤ 4.16	5.77	5.14	4.95	5.89	–

Sequence	pKd (HLA-A*03:01; [4])	pKd (HLA-A*11:01; [4])	pKd (HLA-A*31:01; [4])	pKd (HLA-A*33:01; [4])	pKd (HLA-A*68:01; [4])	other results
NIILSKIPY	5.93	6.26	4.84	5.01	6.11	–
NISIIVLFQR	6.04	6.17	7.47	5.85	8.42	–
NIVTFINDY	≤ 4.11	≤ 4.34	4.84	≤ 4.11	6.27	–
NLDPDNKMSY	6.02	6.24	≤ 4.38	≤ 4.18	5.84	–
NTMCTEETKR	≤ 4.49	5.19	4.88	5.38	7.75	–
NVKKKNEGK	5.19	≤ 4.53	≤ 4.69	4.75	6.85	–
NYVHCFRKPH	–	–	–	–	–	pKd (HLA-A*03:01; [9]): ≤ 4.15; pKd (HLA-A*11:01; [9]): ≤ 4.16; pKd (HLA-A*31:01; [9]): 4.92; pKd (HLA-A*33:01; [9]): 5.84; pKd (HLA-A*68:01; [9]): ≤ 4.15
PVSMTYLYNK	5.92	6.97	5.21	≤ 4.15	4.89	–
QFANVISKIY	5.47	5.06	5.94	5.92	5.71	–
RFWELVDKER	–	–	–	–	–	pKd (HLA-A*31:01; [10]): 8.28
RFWELVDRER	–	–	–	–	–	pKd (HLA-A*31:01; [7]): 9.46
RLGVRATRK	–	–	–	–	–	pKd (HLA-A*68:01; source organism: Hepacivirus hominis): ≤ 4.10
RLKMDKLELK	–	–	–	–	–	pKd (HLA-A*03:01; [8]): 7.46
RMLNILNGRK	–	–	–	–	–	pKd (HLA-A*03:01; [10]): 7.86
RQMEGEGVFK	–	–	–	–	–	pKd (HLA-A*03:01; source organism: Dengue virus 2 Peru/IQT2913/1996): 7.62
RVIDPRRCLK	–	–	–	–	–	pKd (HLA-A*03:01; [5]): 8.06; pKd (HLA-A*31:01; [5]): 9.12; pKd (HLA-A*68:01; [5]): 7.55
SDGTFKIGLH	–	–	–	–	–	pKd (HLA-A*31:01; [11]): ≤ 4.44; pKd (HLA-A*33:01; [11]): ≤ 4.32
SGNDIANCLR	–	–	–	–	–	pKd (HLA-A*33:01; [5]): 6.85
STGSQLAKR	–	–	–	–	–	pKd (HLA-A*31:01; [5]): 6.67
VQTKPGLFK	–	–	–	–	–	pKd (HLA-A*03:01; [7]): 6.84; pKd (HLA-A*11:01; [7]): 6.99
VTFKTAHAK	–	–	–	–	–	pKd (HLA-A*03:01; [5]): 8.38; pKd (HLA-A*11:01; [5]): 7.05; pKd (HLA-A*68:01; [5]): 7.36
VTFKVPHAKR	–	–	–	–	–	pKd (HLA-A*68:01; [10]): 7.67
YQNKVVKVQR	–	–	–	–	–	pKd (HLA-A*33:01; [8]): 6.15

Reference: the Immune Epitope Database (IEDB)
